{
  "source": "patent US20150301068A1",
  "about": "(VIB VZW, published 2015)",
  "proteins": {"B1": {"name": "tetraspanin 6 (TSPAN6) (other)", "chain": "MASPSRRLQTKPVITCFKSVLLIYTFIFWITGVILLAVGIWGKVSLENYFSLLNEKATNVPFVLIATGTVIILLGTFGCFATCRASAWMLKLYAMFLTLVFLVELVAAIVGFVFRHEIKNSFKNNYEKALKQYNSTGDYRSHAVDKIQNTLHCCGVTDYRDWTDTNYYSEKGFPKSCCKLEDCTPQRDADKVNNEGCFIKVMTIIESEMGVVAGISFGVACFQLIGIFLAYCLSRAITNNQYEIV", "notes": "Endogenous TSPAN6 in HEK cell lysates, exosomes and human CSF, on Western blots; also called tetraspanin TM4-D; tetraspanin TM4SF"}},
  "target": "the molecule itself",
  "experiment": "Western blot of HEK lysates after detergents, 95 C and beta-mercaptoethanol; homodimer band at about 50 kDa",
  "data": [
    {"protein": "B1", "values": [
      {"measurement": "binding result", "value": "binds"}
    ]}
  ]
}
